Measurements: paper PMC9122090 (Structure (London, England : 1993), 2021)
Blank lines part the entries; values can stand above or below the binder they belong to.

Columns and labels:
[1] = target: T1, FHOD1-N (human FHOD1 residues 1–339), wild type (human, UniProt Q9Y613 1-339); test: BLI
T1 sequence (looked up): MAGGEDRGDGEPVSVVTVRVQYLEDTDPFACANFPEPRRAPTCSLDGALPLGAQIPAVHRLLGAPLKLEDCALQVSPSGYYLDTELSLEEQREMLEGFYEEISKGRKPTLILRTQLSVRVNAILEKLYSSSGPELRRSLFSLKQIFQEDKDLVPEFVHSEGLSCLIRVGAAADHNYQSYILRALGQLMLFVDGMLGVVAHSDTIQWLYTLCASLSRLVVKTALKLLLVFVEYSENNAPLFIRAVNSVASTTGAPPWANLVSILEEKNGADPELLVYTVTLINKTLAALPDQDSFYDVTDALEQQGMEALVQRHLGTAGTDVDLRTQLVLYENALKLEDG

[2] = target: T1, FHOD1-N (human FHOD1 residues 1–339), …; test: SEC
[3] = target: T2, Nes2G SR11–12-FHOD1-N complex (human, UniProt Q9Y613 1-339; Q8WXH0 1425-1649); test: SEC
T2 sequence (looked up) 1: T1 sequence (looked up)
T2 sequence (looked up) 2: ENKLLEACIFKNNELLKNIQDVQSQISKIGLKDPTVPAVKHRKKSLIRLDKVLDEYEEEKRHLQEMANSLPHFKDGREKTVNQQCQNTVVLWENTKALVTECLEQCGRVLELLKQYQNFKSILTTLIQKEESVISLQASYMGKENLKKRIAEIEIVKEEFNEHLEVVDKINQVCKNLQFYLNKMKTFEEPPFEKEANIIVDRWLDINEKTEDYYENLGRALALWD

[4] = target: T1, FHOD1-N (human FHOD1 residues 1–339), …; test: SEC; remark: listed apart in the source

B1: N-terminally AVI-tagged, biotinylated Nes1G SR17–18 (residues 1976–2200) (domain or fragment, human, UniProt Q8NF91 1976-2200, looked up)
chain: LAVLKKAFQDQKEELLKSIEDIEERTDKERLKEPTRQALQQRLRVFNQLEDELNSHEHELCWLKDKAKQIAQKDVAFAPEVDREINRLEVTWDDTKRLIHENQGQCCGLIDLMREYQNLKSAVSKVLENASSVIVTRTTIKDQEDLKWAFSKHETAKNKMNYKQKDLDNFTSKGKHLLSELKKIHSSDFSLVKTDMESTVDKWLDVSEKLEENMDRLRVSLSIWD
modifications: biotin on the AVI sequence
Kd [1]: 0.085 µM

B2: N-terminally AVI-tagged, biotinylated Nes2G SR11–12 (residues 1425–1649) (domain or fragment, human, UniProt Q8WXH0 1425-1649, looked up)
chain: T2 sequence (looked up) 2
modifications: biotin on the AVI sequence
Kd [1]: 0.375 µM

B3: Nes1G SR17–18 (human nesprin-1 giant residues 1976–2200) (domain or fragment, UniProt Q8NF91-1 1976-2200, looked up)
chain: B1 chain
binding result [2]: binds

B4: N-terminally AVI-tagged, biotinylated Nes1G SR18 (residues 2076–2200) (domain or fragment, human, UniProt Q8NF91 2076-2200, looked up)
chain: ENQGQCCGLIDLMREYQNLKSAVSKVLENASSVIVTRTTIKDQEDLKWAFSKHETAKNKMNYKQKDLDNFTSKGKHLLSELKKIHSSDFSLVKTDMESTVDKWLDVSEKLEENMDRLRVSLSIWD
modifications: biotin on the AVI sequence
binding result [1]: binds

B5: Nes1G SR18 (human nesprin-1 giant residues 2076–2200) (domain or fragment, UniProt Q8NF91-1 2076-2200, looked up)
chain: B4 chain
binding result [2]: binds

More lines, now with the values ahead:

binding result [2]: binds
B6: Nes2G SR11–12 (human nesprin-2 giant residues 1425–1649) (domain or fragment, UniProt Q8WXH0-1 1425-1649, looked up)
chain: T2 sequence (looked up) 2

binding result [3]: binds
binding result [4]: binds
B7: FHOD1 DAD domain (residues 1052–1164), released from MBP-DAD by 3C protease (domain or fragment, human, UniProt Q9Y613 1052-1164, looked up)
chain: SMKSLLTSRPEDTTHNRRSRGMVQSSSPIMPTVGPSTASPEEPPGSSLPSDTSDEIMDLLVQSVTKSSPRALAARERKRSRGNRKSLRRTLKSGLGDDLVQALGLSKGPGLEV
